Assays:
BCMA 101 x CD3 = experiment: SPR (Biacore)
BCMA 102 x CD3 = experiment: SPR (Biacore)

- Kd (BCMA 101 x CD3): 0.5 nM
- Kd (BCMA 102 x CD3): 0.6 nM
B1: Human BCMA (other)
chain (part 1 of 2): MLQMAGQCSQNEYFDSLLHACIPCQLRCSSNTPPLTCQRYCNASVTNSVKGTNASGGGGSEAHKSEIAHRYNDLGEQHFKGLVLIAFSQYLQKCSYDEHAKLVQEVTDFAKTCVADESAANCDKSLHTLFGDKLCAIPNLRENYGELADCCTKQEPERNECFLQHKDDNPSLPPFERPEAEAMCTSFKENPTTFMGHYLHEVARRHPYFYAPELLYYAEQYNEILTQCCAEADKESCLTPKLDGVKEKALVSSVRQRMKCSSMQKFGERAFKAWAVARLSQTFPNADFAEITKLATDLTKVNKECCHGDLLECADDRAELAKYMCENQATISSKLQTCCDKPLLKKAHCLSEVEHDTMPADLPAIAADFVEDQEVCKNYAEAKDVFLGTFLYEYSRRHPDYSVSLLLRLAKKYEATLEKCCAEANPPACYGTVLAEFQPLVEEPKNLVKTNCDLYEKLGEYGFQNAILVRYTQKAPQVSTPTLVEAARNLGRVGTKCCTLPEDQRLPCVEDYLSAILNRVCLLHEKTPVSEHVTKCCSGSLVERRPCFSALTVDETYVPKEFKAETFTFHSDICTLPEKEKQIKKQTALAELVKHKPKATAEQLKTVMDDFAQFLDTCCKAADKDTCFSTEGPNLVTRCKDALA
chain (part 2 of 2): SGHHGGHHGGHH
